Laboratory results: PMC6278935 (Pharmacogenetics and genomics, 2012)
Marks after values point to notes of the source that are not given here.

Key:
[1] = substrate: CN1CCN(C2=Nc3cc(Cl)ccc3Nc3ccccc32)CC1; assay: cells, lysate or membranes named; conditions: other: substrate CLZ
[2] = substrate: Clc1ccc2c(c1)N=C(N1CCNCC1)c1ccccc1N2; assay: cells, lysate or membranes named; conditions: other: substrate dmCLZ

Row | Protein | Km [1] | Vmax [1] [µmol/min/mg] | Vmax/Km [1] [µL/min/mg] | Km [2] | Vmax [2] [µmol/min/mg] | Vmax/Km [2] [µL/min/mg]
1 | UGT1A1 (Homo sapiens) (protein) HAGKILLIPVDGSHWLSMLGAIQQLQQRGHEIVVLAPDASLYIRDGAFYTLKTYPVPFQREDVKESFVSLGHNVFENDSFLQRVIKTYKKIKKDSAMLLSGCSHLLHNKELMASLAESSFDVMLTDPFLPCSPIVAQYLSLPTVFFLHALPCSLEFEATQCPNPFSYVPRPLSSHSDHMTFLQRVKNMLIAFSQNFLCDVVYSPYATLASEFLQREVTVQDLLSSASVWLFRSDFVKDYPRPIMPNMVFVGGINCLHQNPLSQEFEAYINASGEHGIVVFSLGSMVSEIPEKKAMAIADALGKIPQTVLWRYTGTRPSNLANNTILVKWLPQNDLLGHPMTRAFITHAGSHGVYESICNGVPMVMMPLFGDQMDNAKRMETKGAGVTLNVLEMTSEDLENALKAVINDKSYKENIMRLSSLHKDRPVEPLDLAVFWVEFVMRHKGAPHLRPAAHDLTWYQYHSLDVIGFLLAVVLTVAFITFKCCAYGYRKCLGKKGRVKKAHKSKTH | 53 ± 2^a,b μM | 0.00086 ± 2e-05 | 17 ± 0.6 | – | – | –
2 | UGT1A4^24Pro/48Leu (Homo sapiens) (protein) GKVLVVPTDGSPWLSMREALRELHARGHQAVVLTPEVNMHIKEEKFFTLTAYAVPWTQKEFDRVTLGYTQGFFETEHLLKRYSRSMAIMNNVSLALHRCCVELLHNEALIRHLNATSFDVVLTDPVNLCGAVLAKYLSIPAVFFWRYIPCDLDFKGTQCPNPSSYIPKLLTTNSDHMTFLQRVKNMLYPLALSYICHTFSAPYASLASELFQREVSVVDLVSYASVWLFRGDFVMDYPRPIMPNMVFIGGINCANGKPLSQEFEAYINASGEHGIVVFSLGSMVSEIPEKKAMAIADALGKIPQTVLWRYTGTRPSNLANNTILVKWLPQNDLLGHPMTRAFITHAGSHGVYESICNGVPMVMMPLFGDQMDNAKRMETKGAGVTLNVLEMTSEDLENALKAVINDKSYKENIMRLSSLHKDRPVEPLDLAVFWVEFVMRHKGAPHLRPAAHDLTWYQYHSLDVIGFLLAVVLTVAFITFKCCAYGYRKCLGKKGRVKKAHKSKTH | – | – | – | 379 ± 46 µM | 0.01 | 28
3 | UGT1A4^24Pro/48Val (Homo sapiens; L48V) (protein) GKVLVVPTDGSPWLSMREAVRELHARGHQAVVLTPEVNMHIKEEKFFTLTAYAVPWTQKEFDRVTLGYTQGFFETEHLLKRYSRSMAIMNNVSLALHRCCVELLHNEALIRHLNATSFDVVLTDPVNLCGAVLAKYLSIPAVFFWRYIPCDLDFKGTQCPNPSSYIPKLLTTNSDHMTFLQRVKNMLYPLALSYICHTFSAPYASLASELFQREVSVVDLVSYASVWLFRGDFVMDYPRPIMPNMVFIGGINCANGKPLSQEFEAYINASGEHGIVVFSLGSMVSEIPEKKAMAIADALGKIPQTVLWRYTGTRPSNLANNTILVKWLPQNDLLGHPMTRAFITHAGSHGVYESICNGVPMVMMPLFGDQMDNAKRMETKGAGVTLNVLEMTSEDLENALKAVINDKSYKENIMRLSSLHKDRPVEPLDLAVFWVEFVMRHKGAPHLRPAAHDLTWYQYHSLDVIGFLLAVVLTVAFITFKCCAYGYRKCLGKKGRVKKAHKSKTH | – | – | – | 173 ± 22^e μM | 0.017 ± 0.0013 | 96 ± 8
